From patent publication US11504441B2, “Radiolabeled compounds targeting the prostate-specific membrane antigen” (PROVINCIAL HEALTH SERVICES AUTHORITY, priority 2019, dated 2022)
Each block holds one compound with its values, some of them ahead of it.

Assays:
[1] = system: PSMA-expressing LNCaP cancer xenografts; parameters: species or system mice; conditions: mouse, in vivo, iv
Description: (§1) Imaging and biodistribution experiments were performed using NODSCID 1 L2RγKO male mice. Mice were anesthetized by inhalation with 2% isoflurane in oxygen, and implanted subcutaneously with 1×10^7 LNCaP cells behind left shoulder. Mice were imaged or used in biodistribution studies when the tumor grew up to reach 5-8 mm in diameter during 5-6 weeks.
PET imaging experiments were conducted using Siemens Inveon micro PET/CT scanner. Each tumor bearing mouse was injected 6-8 MBq of Ga-68 labeled tracer through the tail vein under anesthesia (2% isoflurane in oxygen). The mice were allowed to recover and roam freely in their cage. After 50 min, the mice were sedated again with 2% isoflurane in oxygen inhalation and positioned in the scanner. […] Then, a 10-min static PET imaging was performed to determined uptake in tumor and other organs. […] The collected organs/tissues were weighed and counted using a Perkin Elmer (Waltham, Mass.) Wizard2 2480 gamma counter. The uptake in each organ/tissue was normalized to the injected dose using a standard curve, and expressed as the percentage of the injected dose per gram of tissue (% ID/g). […]
PET imaging experiments were conducted using Siemens Inveon micro PET/CT scanner. […] Then, a 10-min static PET imaging was performed to determined uptake in tumor and other organs.

[2] = in vivo; conditions: male, NODSCID 1L2RγKO, mouse, iv, total radioactivity
Description: (§2) LNCaP cell line was obtained from ATCC (LNCaP clone FGC, CRL-1740). […] Cells were cultured in PRM I 1640 medium supplemented with 10% FBS, penicillin (100 U/mL) and streptomycin (100 μg/mL) at 37° C. in a humidified incubator containing 5% CO2. Cells grown to 80-90% confluence were then washed with sterile phosphate-buffered saline (1× PBS pH 7.4) and collected by trypsinization. The collected cells concentration was counted with a Hausser Scientific (Horsham, Pa.) Hemacytometer.
as §1
(§3) PET imaging experiments were conducted using Siemens Inveon micro PET/CT scanner. Each tumor bearing mouse was injected 6-8 MBq of Ga-68 labeled tracer through the tail vein under anesthesia (2% isoflurane in oxygen). The mice were allowed to recover and roam freely in their cage. After 50 min, the mice were sedated again with 2% isoflurane in oxygen inhalation and positioned in the scanner. A 10-min CT scan was conducted first for localization and attenuation correction after segmentation for reconstructing the PET images. Then, a 10-min static PET imaging was performed to determined uptake in tumor and other organs. The mice were kept warm by a heating pad during acquisition. For biodistribution studies, the mice were injected with the radiotracer as described above. The mice was anesthetized with 2% isoflurane inhalation, and euthanized by CO2 inhalation. Blood was withdrawn immediately from the heart, and the organs/tissues of interest were collected. The collected organs/tissues were weighed and counted using a Perkin Elmer (Waltham, Mass.) Wizard2 2480 gamma counter. The uptake in each organ/tissue was normalized to the injected dose using a standard curve, and expressed as the percentage of the injected dose per gram of tissue (% ID/g).
(§4) LNCaP cell line was obtained from ATCC (LNCaP clone FGC, CRL-1740). […] Cells were cultured in PRM I 1640 medium supplemented with 10% FBS, penicillin (100 U/mL) and streptomycin (100 μg/mL) at 37° C. in a humidified incubator containing 5% CO2. Cells grown to 80-90% confluence were then washed with sterile phosphate-buffered saline (1× PBS pH 7.4), and collected by trypsinization. The collected cell concentration was counted with a Hausser Scientific (Horsham, Pa.) Hemacytometer.
(§5) Imaging and biodistribution experiments were performed using NODSCID 1L2RγKO male mice. Mice were anesthetized by inhalation with 2% isoflurane in oxygen, and implanted subcutaneously with 1×10^7 LNCaP cells behind left shoulder. Mice were imaged or used in biodistribution studies when the tumor grew up to reach 5-8 mm in diameter during 5-6 weeks.
(§6) PET imaging experiments were conducted using Siemens Inveon micro PET/CT scanner. Each tumor bearing mouse was injected 6-8 MBq of Ga-68 or F-18 labeled tracer through the tail vein under anesthesia (2% isoflurane in oxygen). The mice were allowed to recover and roam freely in their cage. After 50 min, the mice were sedated again with 2% isoflurane in oxygen inhalation and positioned in the scanner. A 10-min CT scan was conducted first for localization and attenuation correction after segmentation for reconstructing the PET images. Then, a 10-min static PET imaging was performed to determined uptake in tumor and other organs.
(§7) For biodistribution studies, the mice were injected with the radiotracer as described above.

[3] = system: PSMA-expressing LNCaP cancer xenografts
Description: as §2, §1, §3, §4, §5, §6, §7

[4] = male, NODSCID 1L2RγKO, mouse, in vivo, iv, 1 h

SMILES: O=C(O)CCC[C@H](NC(=O)N[C@@H](CCCCNC(=O)[C@H](Cc1c2ccccc2cc2ccccc12)NC(=O)[C@H]1CC[C@H](CNC(=O)CN2CCN(CC(=O)O)CCN(CC(=O)O)CCN(CC(=O)O)CC2)CC1)C(=O)O)C(=O)O [68Ga-HTK03149, metal not drawn]
- activity in other organs in PET images [1]: very low activity in other organs
- tissue uptake at 1 h ([2]; Adrenal glands uptake): 0.46 ± 0.26 %ID/g
- tissue uptake at 3 h ([2]; Adrenal glands uptake): 0.46 ± 0.16 %ID/g
- tissue uptake at 1 h ([2]; Blood uptake): 0.96 ± 0.17 %ID/g
- tissue uptake at 3 h ([2]; Blood uptake): 0.35 ± 0.14 %ID/g
- tissue uptake at 1 h ([2]; Bone uptake): 0.1 ± 0.03 %ID/g
- tissue uptake at 1 h ([2]; Brain uptake): 0.02 ± 0.01 %ID/g
- tissue uptake at 3 h ([2]; Brain uptake): 0.02 ± 0.01 %ID/g
- tissue uptake at 1 h ([2]; Fat uptake): 0.22 ± 0.16 %ID/g
- tissue uptake at 3 h ([2]; Fat uptake): 0.16 ± 0.09 %ID/g
- tissue uptake at 1 h ([2]; Heart uptake): 0.29 ± 0.07 %ID/g
- tissue uptake at 3 h ([2]; Heart uptake): 0.09 ± 0.02 %ID/g
- tissue uptake at 1 h ([2]; Intestine uptake): 0.3 ± 0.07 %ID/g
- tissue uptake at 3 h ([2]; Intestine uptake): 0.18 ± 0.04 %ID/g
- tissue uptake at 1 h ([2]; Kidneys uptake): 6.79 ± 4.91 %ID/g
- tissue uptake at 3 h ([2]; Kidneys uptake): 2.33 ± 1.02 %ID/g
- tissue uptake at 1 h ([2]; Lacrimal uptake): 0.1 ± 0.03 %ID/g
- tissue uptake at 3 h ([2]; Lacrimal uptake): 0.21 ± 0.2 %ID/g
- tissue uptake at 1 h ([2]; Liver uptake): 0.35 ± 0.17 %ID/g
- tissue uptake at 3 h ([2]; Liver uptake): 0.13 ± 0.02 %ID/g
- tissue uptake at 1 h ([2]; Lungs uptake): 0.82 ± 0.37 %ID/g
- tissue uptake at 3 h ([2]; Lungs uptake): 0.22 ± 0.05 %ID/g
- tissue uptake at 1 h ([2]; Muscle uptake): 0.14 ± 0.04 %ID/g
- tissue uptake at 3 h ([2]; Muscle uptake): 0.05 ± 0.02 %ID/g
- tissue uptake at 1 h ([2]; Pancreas uptake): 0.17 ± 0.03 %ID/g
- tissue uptake at 3 h ([2]; Pancreas uptake): 0.06 ± 0.02 %ID/g
- tissue uptake at 1 h ([2]; Salivary uptake): 0.23 ± 0.05 %ID/g
- tissue uptake at 3 h ([2]; Salivary uptake): 0.15 ± 0.13 %ID/g
- tissue uptake at 1 h ([2]; Seminal uptake): 6.46 ± 7.52 %ID/g
- tissue uptake at 3 h ([2]; Seminal uptake): 1.19 ± 1.04 %ID/g
- tissue uptake at 1 h ([2]; Spleen uptake): 0.37 ± 0.12 %ID/g
- tissue uptake at 3 h ([2]; Spleen uptake): 0.24 ± 0.07 %ID/g
- tissue uptake at 1 h ([2]; Stomach uptake): 0.09 ± 0.04 %ID/g
- tissue uptake at 3 h ([2]; Stomach uptake): 0.03 ± 0.01 %ID/g
- tissue uptake at 1 h ([2]; Tail uptake): 0.86 ± 0.47 %ID/g
- tissue uptake at 3 h ([2]; Tail uptake): 0.13 ± 0.06 %ID/g
- tissue uptake at 1 h ([2]; Testes uptake): 0.38 ± 0.16 %ID/g
- tissue uptake at 3 h ([2]; Testes uptake): 0.11 ± 0.03 %ID/g
- tissue uptake at 1 h ([2]; Thyroid uptake): 0.29 ± 0.08 %ID/g
- tissue uptake at 3 h ([2]; Thyroid uptake): 0.1 ± 0.04 %ID/g
- tissue uptake at 1 h ([2]; Tumor uptake): 22.1 ± 13.9 %ID/g
- tissue uptake at 3 h ([2]; Tumor uptake): 33.5 ± 10.7 %ID/g
- excreta dose per gram or mL at 1 h ([2]; Urine uptake): 336 ± 127 %ID/g
- excreta dose per gram or mL at 3 h ([2]; Urine uptake): 148 ± 102 %ID/g
- Adrenal glands uptake [3, 4]: 0.33 ± 0.11 % ID/g
- Blood uptake [3, 4]: 0.70 ± 0.17 % ID/g
- Kidneys uptake [3, 4]: 4.15 ± 1.46 % ID/g
- Liver uptake [3, 4]: 0.25 ± 0.06 % ID/g
- Lungs uptake [3, 4]: 0.53 ± 0.09 % ID/g
- Seminal uptake [3, 4]: 3.66 ± 5.36 % ID/g
- Spleen uptake [3, 4]: 0.27 ± 0.05 % ID/g
- Stomach uptake [3, 4]: 0.07 ± 0.01 % ID/g
- Tail uptake [3, 4]: 0.58 ± 0.14 % ID/g
- Thyroid uptake [3, 4]: 0.20 ± 0.05 % ID/g
- Tumor uptake [3, 4]: 19.1 ± 6.37 % ID/g
- Urine uptake [3, 4]: 319 ± 183 % ID/g
- Blood: Salivary ratio ([3]; mouse, in vivo): 3.21 ± 0.64

SMILES: O=C(O)CN1CCN(CC(=O)O)CCN(CC(=O)NC[C@H]2CC[C@H](C(=O)N[C@@H](Cc3c4ccccc4cc4ccccc34)C(=O)NCCCC[C@H](NC(=O)N[C@@H](C[C@H](F)C(=O)O)C(=O)O)C(=O)O)CC2)CCN(CC(=O)O)CC1 [68Ga-HTK04040, metal not drawn]
- tissue uptake at 1 h ([2]; Adrenal glands uptake): 2.68 ± 0.7 %ID/g
- tissue uptake at 1 h ([2]; Blood uptake): 0.94 ± 0.12 %ID/g
- tissue uptake at 1 h ([2]; Bone uptake): 0.18 ± 0.03 %ID/g
- tissue uptake at 1 h ([2]; Brain uptake): 0.25 ± 0.43 %ID/g
- tissue uptake at 1 h ([2]; Fat uptake): 0.6 ± 0.3 %ID/g
- tissue uptake at 1 h ([2]; Heart uptake): 0.88 ± 0.08 %ID/g
- tissue uptake at 1 h ([2]; Intestine uptake): 0.53 ± 0.04 %ID/g
- tissue uptake at 1 h ([2]; Kidneys uptake): 76 ± 22.6 %ID/g
- tissue uptake at 1 h ([2]; Lacrimal uptake): 0.06 ± 0.02 %ID/g
- tissue uptake at 1 h ([2]; Liver uptake): 0.94 ± 0.11 %ID/g
- tissue uptake at 1 h ([2]; Lungs uptake): 2.01 ± 0.21 %ID/g
- tissue uptake at 1 h ([2]; Muscle uptake): 0.64 ± 0.5 %ID/g
- tissue uptake at 1 h ([2]; Pancreas uptake): 0.61 ± 0.08 %ID/g
- tissue uptake at 1 h ([2]; Salivary uptake): 1.29 ± 0.24 %ID/g
- tissue uptake at 1 h ([2]; Seminal uptake): 0.51 ± 0.12 %ID/g
- tissue uptake at 1 h ([2]; Spleen uptake): 2.58 ± 0.8 %ID/g
- tissue uptake at 1 h ([2]; Stomach uptake): 0.23 ± 0.08 %ID/g
- tissue uptake at 1 h ([2]; Tail uptake): 0.85 ± 0.54 %ID/g
- tissue uptake at 1 h ([2]; Testes uptake): 0.74 ± 0.04 %ID/g
- tissue uptake at 1 h ([2]; Thyroid uptake): 1.14 ± 0.14 %ID/g
- tissue uptake at 1 h ([2]; Tumor uptake): 18.8 ± 5.06 %ID/g
- excreta dose per gram or mL at 1 h ([2]; Urine uptake): 325 ± 66.8 %ID/g
- Blood: Salivary ratio ([3]; mouse, in vivo): 0.73 ± 0.06
- Tumor: Blood ratio ([3]; mouse, in vivo): 20.4 ± 6.02
- Tumor: Kidney ratio ([3]; mouse, in vivo): 0.26 ± 0.08
- Tumor: Muscle ratio ([3]; mouse, in vivo): 43.2 ± 24.9
- Tumor: Salivary ratio ([3]; mouse, in vivo): 14.9 ± 4.40

SMILES: O=C(O)CCC[C@H](NC(=O)N[C@@H](CCCCNC(=O)[C@H](Cc1c2ccccc2cc2ccccc12)NC(=O)c1ccc(NC(=O)CN2CCN(CC(=O)O)CCN(CC(=O)O)CCN(CC(=O)O)CC2)cc1)C(=O)O)C(=O)O [68Ga-HTK04041, metal not drawn]
- tissue uptake at 1 h ([2]; Adrenal glands uptake): 0.31 ± 0.05 %ID/g
- tissue uptake at 1 h ([2]; Blood uptake): 1 ± 0.09 %ID/g
- tissue uptake at 1 h ([2]; Bone uptake): 0.13 ± 0.02 %ID/g
- tissue uptake at 1 h ([2]; Brain uptake): 0.02 %ID/g
- tissue uptake at 1 h ([2]; Fat uptake): 0.11 ± 0.03 %ID/g
- tissue uptake at 1 h ([2]; Heart uptake): 0.3 ± 0.03 %ID/g
- tissue uptake at 1 h ([2]; Intestine uptake): 0.19 ± 0.04 %ID/g
- tissue uptake at 1 h ([2]; Kidneys uptake): 6.82 ± 2.93 %ID/g
- tissue uptake at 1 h ([2]; Lacrimal uptake): 0.11 ± 0.05 %ID/g
- tissue uptake at 1 h ([2]; Liver uptake): 0.37 ± 0.08 %ID/g
- tissue uptake at 1 h ([2]; Lungs uptake): 0.82 ± 0.08 %ID/g
- tissue uptake at 1 h ([2]; Muscle uptake): 0.13 ± 0.03 %ID/g
- tissue uptake at 1 h ([2]; Pancreas uptake): 0.15 ± 0.02 %ID/g
- tissue uptake at 1 h ([2]; Salivary uptake): 0.26 ± 0.04 %ID/g
- tissue uptake at 1 h ([2]; Seminal uptake): 1.68 ± 3.44 %ID/g
- tissue uptake at 1 h ([2]; Spleen uptake): 0.4 ± 0.11 %ID/g
- tissue uptake at 1 h ([2]; Stomach uptake): 0.07 ± 0.03 %ID/g
- tissue uptake at 1 h ([2]; Tail uptake): 0.57 ± 0.05 %ID/g
- tissue uptake at 1 h ([2]; Testes uptake): 0.31 ± 0.05 %ID/g
- tissue uptake at 1 h ([2]; Thyroid uptake): 0.29 ± 0.04 %ID/g
- tissue uptake at 1 h ([2]; Tumor uptake): 12.2 ± 3.15 %ID/g
- excreta dose per gram or mL at 1 h ([2]; Urine uptake): 396 ± 92.3 %ID/g
- Blood: Salivary ratio ([3]; mouse, in vivo): 3.96 ± 0.51
- Tumor: Blood ratio ([3]; mouse, in vivo): 12.4 ± 3.62
- Tumor: Kidney ratio ([3]; mouse, in vivo): 2.06 ± 0.89
- Tumor: Muscle ratio ([3]; mouse, in vivo): 95.1 ± 33.7
- Tumor: Salivary ratio ([3]; mouse, in vivo): 48.2 ± 12.2

SMILES: O=C(O)CCC[C@H](NC(=O)N[C@@H](CCCCNC(=O)[C@H](Cc1cccc(I)c1)NC(=O)[C@H]1CC[C@H](CNC(=O)CN2CCN(CC(=O)O)CCN(CC(=O)O)CCN(CC(=O)O)CC2)CC1)C(=O)O)C(=O)O [68Ga-HTK04053, metal not drawn]
- tissue uptake at 1 h ([2]; Adrenal glands uptake): 0.12 ± 0.03 %ID/g
- tissue uptake at 1 h ([2]; Blood uptake): 0.29 ± 0.05 %ID/g
- tissue uptake at 1 h ([2]; Bone uptake): 0.04 ± 0.01 %ID/g
- tissue uptake at 1 h ([2]; Brain uptake): 0.01 %ID/g
- tissue uptake at 1 h ([2]; Fat uptake): 0.04 ± 0.01 %ID/g
- tissue uptake at 1 h ([2]; Heart uptake): 0.09 ± 0.02 %ID/g
- tissue uptake at 1 h ([2]; Intestine uptake): 0.15 ± 0.03 %ID/g
- tissue uptake at 1 h ([2]; Kidneys uptake): 3.48 ± 2.39 %ID/g
- tissue uptake at 1 h ([2]; Lacrimal uptake): 0.05 ± 0.01 %ID/g
- tissue uptake at 1 h ([2]; Liver uptake): 0.13 ± 0.07 %ID/g
- tissue uptake at 1 h ([2]; Lungs uptake): 0.28 ± 0.04 %ID/g
- tissue uptake at 1 h ([2]; Muscle uptake): 0.05 ± 0.01 %ID/g
- tissue uptake at 1 h ([2]; Pancreas uptake): 0.06 ± 0.02 %ID/g
- tissue uptake at 1 h ([2]; Salivary uptake): 0.06 ± 0.02 %ID/g
- tissue uptake at 1 h ([2]; Seminal uptake): 7.61 ± 12.5 %ID/g
- tissue uptake at 1 h ([2]; Spleen uptake): 0.12 ± 0.03 %ID/g
- tissue uptake at 1 h ([2]; Stomach uptake): 0.06 ± 0.04 %ID/g
- tissue uptake at 1 h ([2]; Tail uptake): 0.2 ± 0.07 %ID/g
- tissue uptake at 1 h ([2]; Testes uptake): 0.11 ± 0.02 %ID/g
- tissue uptake at 1 h ([2]; Thyroid uptake): 0.09 ± 0.01 %ID/g
- tissue uptake at 1 h ([2]; Tumor uptake): 4.96 ± 2.75 %ID/g
- excreta dose per gram or mL at 1 h ([2]; Urine uptake): 523 ± 330 %ID/g
- Blood: Salivary ratio ([3]; mouse, in vivo): 5.19 ± 1.73
- Tumor: Blood ratio ([3]; mouse, in vivo): 16.8 ± 7.00
- Tumor: Kidney ratio ([3]; mouse, in vivo): 1.84 ± 1.26
- Tumor: Muscle ratio ([3]; mouse, in vivo): 93.7 ± 27.0
- Tumor: Salivary ratio ([3]; mouse, in vivo): 84.3 ± 32.1

- tissue uptake at 1 h ([2]; kidney uptake): 76 %ID/g
SMILES: O=C(O)CN1CCN(CC(=O)O)CCN(CC(=O)NC[C@H]2CC[C@H](C(=O)N[C@@H](Cc3c4ccccc4cc4ccccc34)C(=O)NCCCC[C@H](NC(=O)N[C@@H](C[C@H](F)C(=O)O)C(=O)O)C(=O)O)CC2)CCN(CC(=O)O)CC1 [HTK04040]
- binding to PSMA (in words) ([3]; concluded from biodistribution): bind well to PSMA
- kidney and salivary gland uptake (in words) ([3]; mouse, in vivo): much less kidney and salivary gland uptake
